Drawing on publication PMC2879644, this text covers fold change of the amount bound against Pc2 (1-100) for one substance.

The target of the experiment is Biotinylated histone H3 peptide (aa 21-44) tri-methylated on K27 (UniProt P68431). Description: pull-down.

“GST-SUMO1-fused Pc2(1-100) (from UniProt O00257 1-100)” registered a fold change of the amount bound against Pc2 (1-100) greater than 4 fold.
